# From patent US20230139680A1 (TEXAS A AND M UNIVERSITY SYSTEM, published 2023)
# Starred links: 1 amine or outer side, 2 acyl side, 3 side chain; linkers in the order of their positions; H or OH if unused. Positions of bridges follow the written chain, without caps; N, C: chain ends. Non-standard residues stand in square brackets, D forms with d. No end group written: not given here. *: point of attachment. AcrK = N6-acryloyl-L-lysine, C=CC(=O)NCCCC[C@H](N[*:1])C(=O)[*:2]; 5FAM = O=C1OC2(c3ccc(O)cc3Oc3cc(O)ccc32)c2ccc(C(=O)*)cc21
# T1: HDAC8 (UniProt Q9BY41 1-377)
# T1 construct: Expressed in E. coli BL21(DE3) CodonPlus, purified on Ni-NTA and Q Sepharose; also called HAC8; histone deacetylase 8; not shown: C-terminal TEV site and His6 tag by the plasmid's name (pHD4-HDAC8-TEV-His6)
# T1 sequence (looked up): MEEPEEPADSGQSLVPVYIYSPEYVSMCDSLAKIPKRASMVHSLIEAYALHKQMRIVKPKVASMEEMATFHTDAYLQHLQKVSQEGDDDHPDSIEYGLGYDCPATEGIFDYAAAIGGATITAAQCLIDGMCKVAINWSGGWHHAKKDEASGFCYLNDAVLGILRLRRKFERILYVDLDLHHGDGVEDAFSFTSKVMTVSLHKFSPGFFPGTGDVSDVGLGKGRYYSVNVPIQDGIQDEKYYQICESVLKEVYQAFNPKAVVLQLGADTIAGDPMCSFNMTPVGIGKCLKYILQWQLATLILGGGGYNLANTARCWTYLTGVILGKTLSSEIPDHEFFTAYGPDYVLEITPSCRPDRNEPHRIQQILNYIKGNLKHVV
# What was measured:
# [1] = target: T1, HDAC8; assay: fluorescence polarization, 25 nM 5-FAM peptide, protein titrated
# Method: (§1) The fluorescence polarization was measured in a microplate reader at Ex/Em=490 nm/520 nm.
# [2] = target: T1, HDAC8; assay: cell-based or functional assay
# [3] = target: T1, HDAC8; assay: fluorescence polarization (summary sentence of the example)
# Method: as §1
Binder,Kd [1] [µM],"IC50 of inhibition of HDAC8 deacetylation of Boc-AcK-AMC (fluorogenic, trypsin-coupled activity assay) [2] [µM]",fold stronger affinity than its linear counterpart [3] [fold]
"CQSLWMNKK(5FAM)-NH2 (N-terminus assumed; SMILES CSCC[C@H](NC(=O)[C@H](Cc1c[nH]c2ccccc12)NC(=O)[C@H](CC(C)C)NC(=O)[C@H](CO)NC(=O)[C@H](CCC(N)=O)NC(=O)[C@@H](N)CS)C(=O)N[C@@H](CC(N)=O)C(=O)N[C@@H](CCCCN)C(=O)N[C@@H](CCCCNC(=O)c1ccc2c(c1)C(=O)OC21c2ccc(O)cc2Oc2cc(O)ccc21)C(N)=O, Linear counterpart with plain Lys in place of AcrK; also called linear counterpart of 5FAM-CycH8a) [5-FAM-conjugated LinH8a]",> 50,–,–
"CQSLWMN[AcrK]K(5FAM)-NH2 (bridge 1-8; not fully specified (bridges), also called 5FAM-CycH8a; 5FAM-cycH8a) [5-FAM-conjugated CycH8a]",7.1,9.7,6
